Assay: yeast display, Sf9 membrane polyspecificity reagent, FACS + sequencing; frameworks hold sequencing errors
In short: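 Galactose induction of a Saccharomyces cerevisiae BJ5465 synthetic nanobody display library ran 36–48 hours. The cells were then stained for 1 hour at 4 °C with 10% biotinylated, detergent-solubilized Sf9 membrane reagent, pulled down on streptavidin microbeads and FACS-sorted into low and high (top ~1%) gates on expression and reagent-binding fluorescence. Labels for polyreactivity follow the gate of origin.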

Row | Sequence | polyreactivity (PSR sort gate)
1 | QVQLVESGGGLVQAGGSLRLSCAASGITFKGNAMGWYRQAPGKERELVAVITWSGGSTYYADSVKGRFTISRDNAKNTVYLQMNSLKPEDTAVYYCAKPWKYGDSQYDYWGQGTQVTVSS | low polyreactivity
2 | QVQLVESGGGLVQAGGSLRLSCAASGITFKLYAIGWYRQAPGKERELVATINRGSSTYYADSVKGRFTISRDNAKNTVYLQMNSLKPEDTAVYYCAADNVRKWHKMDYWGQGTQVTVSS | high polyreactivity
3 | QVQLVESGGGLVQAGGSLRLSCAASGITFKSYTMGWYRQAPGKERELVAAITASGGTTRYADSVKGRFTISRDNAKNTVYLQMNSLKREDTAVYYCNALPFRYGKRRGYWGQGTQVTVSS | low polyreactivity
4 | QVQLVESGGGLVQAGGSLRLSCAASGITFKYYAMGWYRQAPGKERELVAAIRGGRTYYADSVKGRFTISRDNAKNTVYLQMNSLKPEDTAVYYCNARYYQSGIKYNYWGQGTQVTVSS | high polyreactivity
5 | QVQLVESGGGLVQAGGSLRLSCAASGITFKYYTMGWYRPAPGKERELVAAITSRAGRTYADSVKGRFTISRDNAKNTVYLQMNSLKPEDTAVYYCDKKWRGNTYLYDYWGQGTQVTVSS | high polyreactivity
6 | QVQLVESGGGLVQAGGSLRLSCAASGITFKYYTMGWYRQAPGKERELVAAISRGGSTNYADSVKGRFTISRDNAKNTVYLQMNSLKPEDTAVYYCAVDVPEFWWYRVIYDGYYWGQGTQVTVSS | high polyreactivity
7 | QVQLVESGGGLVQAGGSLRLSCAASGITFKYYTMGWYRQAPGKERELVASINNDGSTYYADSVKGRFTISRDNAKNTVYFQMNSLKPEDTAVYYCAASGYGWFWYDYWGHGTQVTVSS | high polyreactivity
8 | QVQLVESGGGLVQAGGSLRLSCAASGITFLPTAMGWYRQAPGKERELVAAITWRGGSTYYADAVKGRFTISRDHAKNTVYLQMNSLKREDTAVYYCGATGWQYVYYNYLWLKGGYWGQGTQVSVSS | high polyreactivity
9 | QVQLVESGGGLVQAGGSLRLSCAASGITFLTYTMGWYRQAPGKERELVAAISRSGGRTYYADSVKGRFTISRDNAKNTVYLQMNSLKPEDTAVYYCAAVSANQDFDYWGQGTQVTVSS | high polyreactivity
10 | QVQLVESGGGLVQAGGSLRLSCAASGITFLYYAMGWYRQAPGKERELVAAISGGGASTYYADSVKGRFTISRDNAKNTVYLQKNSLKPEDTAVYYCAAGYRDFFRARFGYWGQGTQVTVSS | high polyreactivity
11 | QVQLVESGGGLVQAGGSLRLSCAASGITFNSYAMGWYRQAPGKERELVASITERGDSTYYADSVKGRFTLSRDNAKNTVYLQMNSLKPEDTGVYYCAAAEHLTRPSSPTQDGDHWGQGTQVTVSS | low polyreactivity
12 | QVQLVESGGGLVQAGGSLRLSCAASGITFNSYRMVWYRQAPVKERELVAAISGSGSSTYYADSVKGRFTISRDNAKNTVYLQMNSLKPEDTGVYYCADVSGKNVDFVWVLAYPRLDYWGQGTQVTVSS | low polyreactivity
13 | QVQLVESGGGLVQAGGSLRLSCAASGITFNVYAMAWYRQAPGKERELVATITGSGGSTYYADSVKGRFTISRDNAKNTVYLQMNSQKPEDTAVYYCNAYYYFWGQGSQVTVSS | low polyreactivity
14 | QVQLVESGGGLVQAGGSLRLSCAASGITFNYYAMGWYRQAPGKEREFVAAITRSGGRTYYADSVKGRFTISRDNAKNTVYLQMNSLKPEDTAVYYCAAGYYILYIWKFDYWGQGTQVTVSS | high polyreactivity
15 | QVQLVESGGGLVQAGGSLRLSCAASGITFNYYAMGWYRQAPGKERELVAVISSSGGRTYYADSVKGRFTISRDNAKNTVYFQMNSLKPEDTAVYYCGAGCSVAFYYWGQGTQVTVSS | high polyreactivity
16 | QVQLVESGGGLVQAGGSLRLSCAASGITFNYYTMVWYRQAPGKERELVARITISGGSTYYADSVKGRFTISRDNAKNTVDFQMYSLKPEDTAVYYCNVRLYGYRHDYWGQGTQVTVSS | high polyreactivity
17 | QVQLVESGGGLVQAGGSLRLSCAASGITFPANAMGWYRQAPGKERELVAAISTSGGSTYYADSVKGRFTISRDNAKNTVYLQMNSLKPEDTAVYYCAATIYPYYSLYSHYYWGQCTQVTVSS | high polyreactivity
18 | QVQLVESGGGLVQAGGSLRLSCAASGITFPDYDMGWYRQAPGKERELVAAITYRSGSTYYADSVKGRFTISRDNAKNTVYLQMNSLKPEDTAVYYCAATVRGVGYRYYYWGQGTQVTVSS | high polyreactivity
19 | QVQLVESGGGLVQAGGSLRLSCAASGITFPFYAMGWYRQAPGKERELVAGITSGGSTYYADSVKGRFTISRDNAKNTVYLQMNSLKPEDTAVYYCAAPFYRQSLIEYDFWGQGTQVTVSS | high polyreactivity
20 | QVQLVESGGGLVQAGGSLRLSCAASGITFPGNVMGWYRQAPGKERELVAAISTSGGSTYYADSVKGRFTISRDNAKNTVYLQMNSLKPEDTAVYYCARQYIRSSYGYWGQGTQVTVSS | low polyreactivity
21 | QVQLVESGGGLVQAGGSLRLSCAASGITFPGYAMGWYRQAPGKERELVAAIDRSGDGTYYADSVKGRFTISRDNAKNTVYLQMNSLKPEDPAVYYCAKDNYPNHSTVLAVIYDYWGQGTQVTVSS | low polyreactivity
22 | QVQLVESGGGLVQAGGSLRLSCAASGITFPGYAMGWYTQAPGKERELVAVIRKSGTSTYYADSVKGRFTISRDNAKNTVYLQMNSLKPEDTAVYYCAAGGPSTLDDYWGQGTQVTVSS | low polyreactivity

Row | Sequence | polyreactivity (PSR sort gate)
23 | QVQLVESGGGLVQAGGSLRLSCAASGITFPLYVLGWYRQAPGKDRELVAAISASGGSTYADSVKGRFTISRDNAKNTVYFQMNSLKTEVTAVYYCNADVYVGYEYDYWGQGTQVTVSS | low polyreactivity
24 | QVQLVESGGGLVQAGGSLRLSCAASGITFPRNAMGWYRQAPGKERELVAAISARGGNTYYADSVKGRFTISRDNSKNNVYLQMNSLKPEDTAVYFCNALGSSYSEPSEYDYWGQGTQVTVSS | low polyreactivity
25 | QVQLVESGGGLVQAGGSLRLSCAASGITFPRYAMGGYRPAPGKERELVATITRTGRTNYADSVKGRFTISRDNAKNTVYLQKNSLKPEDTPVYYCAARNRRERKGKMDYWGQGTQVTVSS | high polyreactivity
26 | QVQLVESGGGLVQAGGSLRLSCAASGITFPWYAMGWYRQAPGKERELVAAISSDADTYYADSVKGRFTISRDNAKNTVYLQMISLKPEDTAVYYCAAETFDYSRGYTAMGYWGQGTQVTVSS | high polyreactivity
27 | QVQLVESGGGLVQAGGSLRLSCAASGITFPYYAMGWDRQAPGKERELVAAISSSGGSTYYADSVKGRFTISRDNAKNTVYLQMNSLKPEDTAVYYCAAQRYINYDYWGQGTQVTVSS | high polyreactivity
28 | QVQLVESGGGLVQAGGSLRLSCAASGITFPYYAMGWYRQAPGKERELVAAISSGGSTNYADSVKGRFTISRDNAKNTVYLQMNSLKPEDTAVYYCNADVRSYFYDYWGQGTQVTVSS | low polyreactivity
29 | QVQLVESGGGLVQAGGSLRLSCAASGITFQLYAMGWYRQAPGKERELVAAIDASGGITNYADSVKGRFTISRDNAKNTVYLQMNSLKPEDTAVYYCASFFKLRYRYQFWRYGFGYWGQGTQVTVSS | high polyreactivity
30 | QVQLVESGGGLVQAGGSLRLSCAASGITFQWYTMGWYRQAPGKERELVATISSGGSTNYADSVKGRFTISRDNAKNTVYLQMNSLKPEDTPVYYCAAYDYISSTYFLDEYWGQGTQVTVSS | low polyreactivity
31 | QVQLVESGGGLVQAGGSLRLSCAASGITFQYNAMGWYRQAPGKERELVATIRRGGITKYADSVKGRFTISRDNAKNTVSLQMNSLKPEDSAVYYCAADFWYYQYPYGGGGYWGQGTQVTVSS | low polyreactivity
32 | QVQLVESGGGLVQAGGSLRLSCAASGITFQYYAMGWYRQAPGKERELVAAITKRGGSTYYADSVKGRFTISRDNAKNTVYLQMTSLKPEETAVYYCAADLGGNSRLDYWGQGTQVTVSS | high polyreactivity
33 | QVQLVESGGGLVQAGGSLRLSCAASGITFRCNAMGWYRQAPGKERELVASITGGTDTYYADSVKGRFTISRDNAKKTVYLQMNSLKPEASAVYYCAAPSNQYFRYKRRYYYWGQGTQVTVSS | high polyreactivity
34 | QVQLVESGGGLVQAGGSLRLSCAASGITFRFNAMGWYRQAPGKEREFVAAITYSGDSTYYADSVKGRFTISRDNAKNTVYLQMNSLKPEDTAVYYCAADYYAISRRIFYYWGQGTQVTVSS | low polyreactivity
35 | QVQLVESGGGLVQAGGSLRLSCAASGITFRGYAMGWYRQAPGKERELVAAISSRGGSTYYADSVKGRFTISRDNAKNTVYLQMNSLKPEDTAVYYCNAVSGLYFTYTYDYWGQGTQVTVSS | high polyreactivity
36 | QVQLVESGGGLVQAGGSLRLSCAASGITFRGYAMGWYRQAPGTERELVAAITGSGTSTYADSVKGRFTISRDNAKNTVYLQMNILKPEDTAVYYCAADTYDPFYYGYGYWGQGTQVTVSS | low polyreactivity
37 | QVQLVESGGGLVQAGGSLRLSCAASGITFRGYARGWYRQAPGKERELVASITNTDSTYYADSVKGRFTISRDNAKNTVYLQMNSLKPEDTAVYYCAARRGRKYGYWGQGTQVTVSS | high polyreactivity
38 | QVQLVESGGGLVQAGGSLRLSCAASGITFRRYAMGWYRQAPGKERELVAAISRSGGSTRYADSVKGRFTISRDNAKNTVYLLMNSLKPEDTAVYYCAADGVPGRAVDYEYWGQGTQVTVSS | high polyreactivity
39 | QVQLVESGGGLVQAGGSLRLSCAASGITFRRYAMGWYRQAPGKERELVAAITSSGGSTYYADSVKGRFSISRDNAKNTVYLQMNSLKPEDTAVYYCAARAYRVNWSSWYRSGYDYWGQGTQVTVSS | high polyreactivity
40 | QVQLVESGGGLVQAGGSLRLSCAASGITFRTYAMGWYRQAPGKERELVAGIRTRTGSTYYADSVKGRFTISRDNAKNTVYLQMNSLKPEDTAVYYCAAKGSGYYGRQRIYSYTYDYWGQGTQVTVSS | high polyreactivity
41 | QVQLVESGGGLVQAGGSLRLSCAASGITFRVYVMGGYRQAPGKERELVAAITSGTSTYYADSVKGRFTISRDNAKNTVYLQMNSLKPEDTAVYYCAADWDLFYAVVGFDFDYWGQGTQVTVSS | low polyreactivity
42 | QVQLVESGGGLVQAGGSLRLSCAASGITFRWYAMGWYRQAPGKERELVAAISSSGGSTYYADSVKGRFTISRDNAKNTVYLQMNSLKPEDTAVYYCAAYTSYASDYWGQGTQVTVSS | high polyreactivity
43 | QVQLVESGGGLVQAGGSLRLSCAASGITFRYNAMGWYRQAPGKERELVAAITFSGGSTYYADSVKGRFTISRDNAKNTVNLQMNSLKPEDTAVYYCAKLGSTSSRGNYDYWGQGTQVTVSS | low polyreactivity

Reference: the nanobody polyreactivity screen of Harvey et al. (2022)
